Assay results: patent publication US20060153838A1

Experiments:
[1] = molecular target: soluble human FcγRIII (biotinylated) (human) (UniProt P08637); experiment: ELISA: IgG captured on PSA-coated plate, biotinylated soluble FcγR, NeutrAvidin-AP, A560 background-subtracted and normalized
[2] = molecular target: soluble human FcγRIIb (biotinylated) (human) (UniProt P31994); experiment: as above
[3] = molecular target: soluble human FcγRIII (biotinylated) (human) (UniProt P08637); experiment: ELISA screen in a manner similar to the anti-PSA library, anti-TNFα parent IgG, biotinylated soluble FcγR, normalized signal
[4] = molecular target: soluble human FcγRIIb (biotinylated) (human) (UniProt P31994); experiment: as above
[5] = molecular target: soluble human FcγRIIa (biotinylated) (human) (UniProt P12318); experiment: ELISA: IgG captured on PSA-coated plate, biotinylated soluble FcγR, NeutrAvidin-AP, A560 background-subtracted and normalized
Sequence of UniProt P12318 (P12318 34-217): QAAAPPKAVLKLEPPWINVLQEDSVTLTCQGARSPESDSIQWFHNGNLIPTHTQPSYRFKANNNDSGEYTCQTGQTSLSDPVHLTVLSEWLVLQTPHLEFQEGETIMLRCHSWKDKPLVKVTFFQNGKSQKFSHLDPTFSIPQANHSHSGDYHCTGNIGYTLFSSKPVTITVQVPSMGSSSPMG

Sequence of UniProt P31994 (P31994 43-217): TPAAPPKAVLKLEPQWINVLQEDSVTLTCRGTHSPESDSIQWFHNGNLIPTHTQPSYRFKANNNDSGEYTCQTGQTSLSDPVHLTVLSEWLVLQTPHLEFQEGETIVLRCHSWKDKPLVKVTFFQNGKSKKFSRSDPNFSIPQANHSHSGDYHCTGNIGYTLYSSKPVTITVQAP
Sequence of UniProt P08637 (P08637 17-208): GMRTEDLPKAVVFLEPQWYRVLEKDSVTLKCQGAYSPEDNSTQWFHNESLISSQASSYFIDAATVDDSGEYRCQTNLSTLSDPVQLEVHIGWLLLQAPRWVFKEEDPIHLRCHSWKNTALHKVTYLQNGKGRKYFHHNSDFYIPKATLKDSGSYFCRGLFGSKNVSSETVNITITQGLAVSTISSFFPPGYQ

Substance | relative FcγRIII (relative to parental antibody = 1.0) [1] | relative FcγRIIb (relative to parental antibody = 1.0) [2] | relative FcγRIII (relative to parental antibody = 1.0) [3] | relative FcγRIIb (relative to parental antibody = 1.0) [4] | relative FcγRIIa (relative to parental antibody = 1.0) [5]
anti-PSA IgG Fc variant Q295K (antibody) | 1.47 | 0.892 |  |  | 
anti-PSA IgG Fc variant Q295L (antibody) | 1.06 | 1.34 |  |  | 1.44
anti-PSA IgG Fc variant Y300L (antibody) | 1.81 | 1.36 |  |  | 
anti-PSA IgG Fc variant S298N (antibody) | 1.42 | 0.363 |  |  | 
anti-PSA IgG Fc variant S298V (antibody) | 2.8 | 0.592 |  |  | 
anti-TNFα IgG Fc variant D280Y (antibody) |  |  | 1.23 | 2.14 | 

The next lines start with the values.

relative FcγRIII (relative to parental antibody = 1.0) [1] | relative FcγRIIb (relative to parental antibody = 1.0) [2] | relative FcγRIII (relative to parental antibody = 1.0) [3] | relative FcγRIIb (relative to parental antibody = 1.0) [4] | relative FcγRIIa (relative to parental antibody = 1.0) [5] | Substance
1.14 | 0.672 |  |  |  | anti-PSA IgG Fc variant E294N (antibody)
 |  | 1.64 | 1.46 |  | anti-TNFα IgG Fc variant K290G (antibody)
2.31 | 0.188 |  |  |  | anti-PSA IgG Fc variant S298D (antibody)
1.38 | 1.26 |  |  |  | anti-PSA IgG Fc variant Y300I (antibody)
 |  | 1.19 | 0.87 |  | anti-TNFα IgG Fc variant D280Q (antibody)
 |  | 1.23 | 1.4 |  | anti-TNFα IgG Fc variant K290S (antibody)
 |  | 1.24 | 0.92 |  | anti-TNFα IgG Fc variant D280H (antibody)
